Data published in patent US20210095007A1 (MIT, published 2021).

T1: Ebola GPdTM (IBT Bioservices) (Ebola virus, UniProt Q05320 33-650)
T1 sequence: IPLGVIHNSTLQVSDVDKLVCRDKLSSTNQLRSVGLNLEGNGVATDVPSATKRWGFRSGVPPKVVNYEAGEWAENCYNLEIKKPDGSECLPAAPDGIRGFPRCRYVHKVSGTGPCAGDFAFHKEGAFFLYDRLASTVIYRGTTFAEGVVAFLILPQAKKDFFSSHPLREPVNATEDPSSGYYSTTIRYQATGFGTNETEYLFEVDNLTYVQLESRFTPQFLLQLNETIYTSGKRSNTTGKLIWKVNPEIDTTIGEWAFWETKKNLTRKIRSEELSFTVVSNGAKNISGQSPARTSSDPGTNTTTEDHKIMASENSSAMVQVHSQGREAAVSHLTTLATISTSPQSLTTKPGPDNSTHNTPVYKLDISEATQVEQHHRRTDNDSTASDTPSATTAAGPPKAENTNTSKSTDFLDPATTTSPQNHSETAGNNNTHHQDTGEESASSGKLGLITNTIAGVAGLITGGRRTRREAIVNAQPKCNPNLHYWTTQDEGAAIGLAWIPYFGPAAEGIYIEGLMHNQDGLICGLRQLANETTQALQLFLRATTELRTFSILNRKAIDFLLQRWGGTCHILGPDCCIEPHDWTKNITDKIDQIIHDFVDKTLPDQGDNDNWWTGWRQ

T2: Ebola virus glycoprotein on Ebola virus Mayinga 1976 strain (Zaire Ebola virus, Mayinga 1976 strain, UniProt Q05320 33-676)
T2 sequence: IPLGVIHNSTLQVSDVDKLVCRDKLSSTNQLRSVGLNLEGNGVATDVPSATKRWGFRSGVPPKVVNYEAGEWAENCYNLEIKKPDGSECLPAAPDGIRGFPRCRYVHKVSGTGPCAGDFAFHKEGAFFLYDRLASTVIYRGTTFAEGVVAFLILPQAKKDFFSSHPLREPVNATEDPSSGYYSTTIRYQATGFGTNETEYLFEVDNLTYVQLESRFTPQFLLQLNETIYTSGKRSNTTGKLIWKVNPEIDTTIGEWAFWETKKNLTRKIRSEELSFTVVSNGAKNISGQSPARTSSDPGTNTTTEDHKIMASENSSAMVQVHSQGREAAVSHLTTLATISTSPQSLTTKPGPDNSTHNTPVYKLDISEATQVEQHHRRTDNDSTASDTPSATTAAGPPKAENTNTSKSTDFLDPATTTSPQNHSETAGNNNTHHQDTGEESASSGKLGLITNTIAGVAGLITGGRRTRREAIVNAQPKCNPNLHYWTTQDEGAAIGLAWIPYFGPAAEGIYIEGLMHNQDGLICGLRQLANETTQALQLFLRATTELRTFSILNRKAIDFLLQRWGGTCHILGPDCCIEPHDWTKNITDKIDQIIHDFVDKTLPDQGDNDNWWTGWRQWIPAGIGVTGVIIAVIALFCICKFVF

T3: Ebola virus glycoprotein on Ebola virus Kikwit 1995 strain (Zaire Ebola virus, Kikwit 1995 strain, UniProt P87666 33-676)
T3 sequence: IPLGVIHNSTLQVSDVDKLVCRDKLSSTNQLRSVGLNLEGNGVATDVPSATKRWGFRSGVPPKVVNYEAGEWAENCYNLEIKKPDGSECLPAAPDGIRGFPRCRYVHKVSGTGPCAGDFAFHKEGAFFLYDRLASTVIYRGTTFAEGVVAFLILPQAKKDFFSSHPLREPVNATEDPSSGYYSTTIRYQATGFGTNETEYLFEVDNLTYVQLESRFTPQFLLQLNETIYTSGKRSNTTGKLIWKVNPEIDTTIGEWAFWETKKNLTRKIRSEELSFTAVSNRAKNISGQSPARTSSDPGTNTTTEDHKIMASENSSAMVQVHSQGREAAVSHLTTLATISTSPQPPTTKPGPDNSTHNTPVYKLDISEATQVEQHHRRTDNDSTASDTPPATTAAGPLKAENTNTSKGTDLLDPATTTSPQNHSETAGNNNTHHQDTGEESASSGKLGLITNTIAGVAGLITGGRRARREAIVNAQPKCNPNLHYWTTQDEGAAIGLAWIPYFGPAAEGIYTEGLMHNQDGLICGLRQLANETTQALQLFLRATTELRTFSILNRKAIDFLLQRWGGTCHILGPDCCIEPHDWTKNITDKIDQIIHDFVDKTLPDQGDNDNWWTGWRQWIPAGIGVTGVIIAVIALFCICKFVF

B1: 4G7.10 (antibody, V domains shown)
VH: QVQLVQSGAEVKKPGSSVKVSCKASGSSFTGFSMNWVRQAPGQSLEWIGNIDTYYGGTTYNGKFKGRVTLTVDKSTSTAYMELSSLRSEDTAVYYCARSAYYGSTFAYWGQGTLVTVSS
VL: DIQMTQSPSSLSASVGDRVTITCRASENIYSYLAWYQQKPGKSPKLLVYNAKTLIEGVPSRFSGSGSGTDFTFTISSLQPEDIATYFCQHHFGTPFTFGQGTKVEIK
B2: 4G7.12 (antibody, V domains shown)
VH: QVQLVQSGAEVKKPGSSVKVSCKASGSSFTGFSMNWVRQAPGQSLEWIGNIDTYYGGTTYNGKFKGRVTLTVDKSTSTAYMELSSLRSEDTAVYYCARSAYYGSTFAYWGQGTLVTVSS
VL: DIVMTQSPSSLSASVGDRVTITCRASENIYSYLAWYQQKPGKSPKLLVYNAVTLIEGVPSRFSGSGSGTQFSLTISSLQPEDIATYFCQHHFGTPFTFGSGTKVEIK
B3: 4G7.11 (antibody, V domains shown)
VH: QVQLVQSGAEVKKPGSSVKVSCKASGSSFTGFSMNWVRQAPGQSLEWIGNIDTYYGGTTYNGKFKGRVTLTVDKSTSTAYMELSSLRSEDTAVYYCARSAYYGSTFAYWGQGTLVTVSS
VL: DIVMTQSPSSLSASVGDRVTITCRASENIYSYLAWYQQKPGKSPKLLVYNAKTLIEGVPSRFSGSGSGTQFSLTISSLQPEDIATYFCQHHFGTPFTFGSGTKVEIK
B4: 4G7.1 (antibody, V domains shown)
VH: QVQLVQSGAEVKKPGSSVKVSCKASGSSFTGFSMNWVRQAPGQGLEWMGNIDTYYGGTTYNGKFKGRVTITADKSTSTAYMELSSLRSEDTAVYYCARSAYYGSTFAYWGQGTLVTVSS
VL: DIQMTQSPSSLSASVGDRVTITCRASENIYSYLAWYQQKPGKAPKLLVYNAKTLIEGVPSRFSGSGSGTDFTFTISSLQPEDIATYYCQHHFGTPFTFGQGTKVEIK
B5: 4G7.3 (antibody, V domains shown)
VH: QVQLVQSGAEVKKPGSSVKVSCKASGSSFTGFSMNWVRQAPGQGLEWMGNIDTYYGGTTYNGKFKGRVTITADKSTSTAYMELSSLRSEDTAVYYCARSAYYGSTFAYWGQGTLVTVSS
VL: DIVMTQSPSSLSASVGDRVTITCRASENIYSYLAWYQQKPGKSPKLLVYNAKTLIEGVPSRFSGSGSGTQFSLTISSLQPEDIATYFCQHHFGTPFTFGSGTKVEIK
B6: 4G7.9 (antibody, V domains shown)
VH: QVQLVQSGAEVKKPGSSVKVSCKASGSSFTGFSMNWVRQAPGQSLEWIGNIDTYYGGTTYNGKFKGRVTLTVDKSTSTAYMELSSLRSEDTAVYYCARSAYYGSTFAYWGQGTLVTVSS
VL: DIQMTQSPSSLSASVGDRVTITCRASENIYSYLAWYQQKPGKAPKLLVYNAKTLIEGVPSRFSGSGSGTDFTFTISSLQPEDIATYYCQHHFGTPFTFGQGTKVEIK
B7: 4G7.2 (antibody, V domains shown)
VH: QVQLVQSGAEVKKPGSSVKVSCKASGSSFTGFSMNWVRQAPGQGLEWMGNIDTYYGGTTYNGKFKGRVTITADKSTSTAYMELSSLRSEDTAVYYCARSAYYGSTFAYWGQGTLVTVSS
VL: DIQMTQSPSSLSASVGDRVTITCRASENIYSYLAWYQQKPGKSPKLLVYNAKTLIEGVPSRFSGSGSGTDFTFTISSLQPEDIATYFCQHHFGTPFTFGQGTKVEIK
B8: 13C6 wild type (parent mouse monoclonal antibody 13C6) (antibody, V domains shown)
VH: QLTLKESGPGILKPSQTLSLTCSLSGFSLSTSGVGVGWFRQPSGKGLEWLALIWWDDDKYYNPSLKSQLSISKDFSRNQVFLKISNVDIADTATYYCARRDPFGYDNAMGYWGQGTSVTVSS
VL: DIVMTQSQKFMSTSVGDRVSLTCKASQNVGTAVAWYQQKPGQSPKLLIYSASNRYTGVPDRFTGSGSGTDFTLTISNMQSEDLADYFCQQYSSYPLTFGAGTKLELR
B9: 4G7 wild type (parent mouse monoclonal antibody 4G7) (antibody, V domains shown)
VH: EVQLQQSGPELEMPGASVKISCKASGSSFTGFSMNWVKQSNGKSLEWIGNIDTYYGGTTYNQKFKGKATLTVDKSSSTAYMQLKSLTSEDSAVYYCARSAYYGSTFAYWGQGTLVTVSS
VL: DIVMTQSPASLSASVGETVTITCRASENIYSYLAWYQQKQGKSPQLLVYNAKTLIEGVPSRFSGSGSGTQFSLKINSLQPEDFGSYFCQHHFGTPFTFGSGTELEIK
B10: 2G4.3 (antibody, V domains shown)
VH: EVQLLESGGGLVQPGGSLRLSCVASGFTFSNYWMNWVRQAPGKGLEWLGFIRLKSNNYATHYSASVKGRFTISRDKSKSTLYLQMNTLQAEDSAIYYCTRGNGNYRAMDYWGQGTLVTVSS
VL: DIVMTQSPSSLSASVGDRVTITCRASENIYSSLAWYQQKPGKSPQLLVYSATILADGVPSRFSGSGSGTQYTLTISSLQPEDFATYYCQHFWGTPYTFGGGTKVEIK
B11: 2G4.6 (antibody, V domains shown)
VH: EVQLLESGGGLVQPGGSLRLSCVASGFTFSNYWMNWVRQAPGKGLEWLAEIRLKSNNYATHYSASVKGRFTISRDKSKSTLYLQMNTLQAEDSAIYYCTRGNGNYRAMDYWGQGTLVTVSS
VL: DIVMTQSPSSLSASVGDRVTITCRASENIYSSLAWYQQKPGKSPQLLVYSATILADGVPSRFSGSGSGTQYTLTISSLQPEDFATYYCQHFWGTPYTFGGGTKVEIK
B12: 2G4 wild type (parent mouse monoclonal antibody 2G4) (antibody, V domains shown)
VH: EVQLQQSGGGLMQPGGSMKLSCVASGFTFSNYWMNWVRQSPEKGLEWVAEIRLKSNNYATHYAESVKGRFTISRDDSKRSVYLQMNTLRAEDTGIYYCTRGNGNYRAMDYWGQGTSVTVSS
VL: DIVMTQSPASLSVSVGETVSITCRASENIYSSLAWYQQKQGKSPQLLVYSATILADGVPSRFSGSGSGTQYSLKINSLQSEDFGTYYCQHFWGTPYTFGGGTKLEIK
B13: 13C6.1 (antibody, V domains shown)
VH: QLTLKESGPTLVKPTQTLSLTCTFSGFSLSTSGVGVGWFRQPPGKALEWLALIWWDDDKYYSPSLKSRLTITKDTSKNQVVLTMTNMDPVDTATYYCARRDPFGYDNAMGYWGQGTTVTVSS
VL: DIVMTQSPSFLSASVGDRVTITCKASQNVGTAVAWYQQKPGKAPKLLIYSASNRYSGVPSRFSGSGSGTDFTLTISSLQPEDFATYFCQQYSSYPLTFGGGTKLEIK

How the values were obtained:
[1] = target: T1, Ebola GPdTM (IBT Bioservices); assay: ELISA, GPdTM coated at 1 µg/mL, anti-human IgG Fc-HRP detection
[2] = target: T2, Ebola virus glycoprotein on Ebola virus …; assay: cell-based or functional assay
[3] = target: T3, Ebola virus glycoprotein on Ebola virus …; assay: cell-based or functional assay
[4] = target: Ebola virus glycoprotein on Ebola virus Makona 2014 strain (Zaire Ebola virus, Makona 2014 strain); assay: cell-based or functional assay

Row | Binder | EC50 [1] | plaque reduction neutralization titre (Vero E6 cells, 200 pfu) [2] | plaque reduction neutralization titre (Vero E6 cells, 200 pfu) [3] | plaque reduction neutralization titre (Vero E6 cells, 200 pfu) [4]
1 | B1 | 120 pM |  |  | 
2 | B2 | 88.8 pM |  |  | 
3 | B3 | 145 pM |  |  | 
4 | B4 | 182 pM |  |  | 
5 | B5 | 176 pM |  |  | 
6 | B6 | 99.7 pM | 1 µg/mL | 1 µg/mL | 1 µg/mL
7 | B7 | 95.2 pM |  |  | 
8 | B8 | 74.7 pM |  |  | 
9 | B9 | 72.5 pM |  |  | 
10 | B10 | 129 pM |  |  | 
11 | B11 | 109 pM | 2 µg/mL | 4 µg/mL | 2 µg/mL
12 | B12 | 154 pM |  |  | 
13 | B13 | 136 pM | > 50 µg/mL | > 50 µg/mL | > 50 µg/mL
